Data set [1] concerns HeLa Kyoto. Description: solubility in G1/S (NP-40 vs SDS abundance) (log2 ratio); higher = more soluble. The conditions noted are these: cell cycle stage: G1/S.
The test system of data set [2] is HeLa Kyoto. Description: melting temperature (median over replicates), in situ; higher = more thermally stable.
The test system of data set [3] is HeLa Kyoto. Description: thermal stability score vs G1/S (z-score of summed log2 fold changes over temperatures); higher = more thermally stable than in G1/S.
Data set [4] relates to HeLa Kyoto. Nature of the data set: solubility change mitosis vs G1/S (difference of NP-40 vs SDS log2 ratios) (log2 ratio difference); higher = more soluble in mitosis.
Setting [5] is: cell cycle stage: early G1 (4.5 h after nocodazole release).
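Wherever melting temperature (median over replicates), in situ is given: HeLa Kyoto cells synchronized by double thymidine or nocodazole block, proteins quantified by TMT10plex mass spectrometry, three independent biological replicates.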
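Wherever solubility change mitosis vs G1/S (difference of NP-40 vs SDS log2 ratios) is given: synchronized HeLa Kyoto cells (double thymidine block for G1/S, nocodazole release for mitosis), protein amounts in NP-40 versus SDS lysates quantified by mass spectrometry, three biological replicates.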
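Wherever solubility in G1/S (NP-40 vs SDS abundance) is given: HeLa Kyoto cells arrested at G1/S by double thymidine block, proteins quantified by TMT10plex mass spectrometry in mild NP-40 versus SDS extracts, three biological replicates.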
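Wherever thermal stability score vs G1/S (z-score of summed log2 fold changes over temperatures) is given: synchronized HeLa Kyoto cells, proteins quantified by TMT10plex mass spectrometry, three biological replicates, mitosis taken 0.5 h after nocodazole release, G1/S directly after double thymidine block.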

For the sequence “MALLAMHSWRWAAAAAAFEKRRHSAILIRPLVSVSGSGPQWRPHQLGALGTARAYQIPESLKSITWQRLGKGNSGQFLDAAKALQVWPLIEKRTCWHGHAGGGLHTDPKEGLKDVDTRKIIKAMLSYVWPKDRPDLRARVAISLGFLGGAKAMNIVVPFMFKYAVDSLNQMSGNMLNLSDAPNTVATMATAVLIGYGVSRAGAAFFNEVRNAVFGKVAQNSIRRIAKNVFLHLHNLDLGFHLSRQTGALSKAIDRGTRGISFVLSALVFNLLPIMFEVMLVSGVLYYKCGAQFALVTLGTLGTYTAFTVAVTRWRTRFRIEMNKADNDAGNAAIDSLLNYETVKYFNNERYEAQRYDGFLKTYETASLKSTSTLAMLNFGQSAIFSVGLTAIMVLASQGIVAGTLTVGDLVMVNGLLFQLSLPLNFLGTVYRETRQALIDMNTLFTLLKVDTQIKDKVMASPLQITPQTATVAFDNVHFEYIEGQKVLSGISFEVPAGKKVAIVGGSGSGKSTIVRLLFRFYEPQKGSIYLAGQNIQDVSLESLRRAVGVVPQDAVLFHNTIYYNLLYGNISASPEEVYAVAKLAGLHDAILRMPHGYDTQVGERGLKLSGGEKQRVAIARAILKDPPVILYDEATSSLDSITEETILGAMKDVVKHRTSIFIAHRLSTVVDADEIIVLDQGKVAERGTHHGLLANPHSIYSEMWHTQSSRVQNHDNPKWEAKKENISKEEERKKLQEEIVNSVKGCGNCSC [ABCB7]”, in the data set on HeLa Kyoto [1], the “solubility in G1/S (log2)” value is -0.121. The melting temperature worked out at 52.5 °C with HeLa Kyoto [2] (cell cycle stage: G1/S) and 51.6 °C in the data set with HeLa Kyoto [2] (cell cycle stage: mitosis). For the same sequence, the thermal stability score is -0.909 in the data set with HeLa Kyoto [3] (setting [5]) and -1.83 in the data set with HeLa Kyoto [3] (cell cycle stage: mitosis). Further, the “solubility change mitosis (log2)” value with HeLa Kyoto [4] was -0.12.

Take “MATKARVMYDFAAEPGNNELTVNEGEIITITNPDVGGGWLEGRNIKGERGLVPTDYVEILPSDGKDQFSCGNSVADQAFLDSLSASTAQASSSAASNNHQVGSGNDPWSAWSASKSGNWESSEGWGAQPEGAGAQRNTNTPNNWDTAFGHPQAYQGPATGDDDDWDEDWDGPKSSSYFKDSESADAGGAQRGNSRASSSSMKIPLNKFPGFAKPGTEQYLLAKQLAKPKEKIPIIVGDYGPMWVYPTSTFDCVVADPRKGSKMYGLKSYIEYQLTPTNTNRSVNHRYKHFDWLYERLLVKFGSAIPIPSLPDKQVTGRFEEEFIKMRMERLQAWMTRMCRHPVISESEVFQQFLNFRDEKEWKTGKRKAERDELAGVMIFSTMEPEAPDLDLVEIEQKCEAVGKFTKAMDDGVKELLTVGQEHWKRCTGPLPKEYQKIGKALQSLATVFSSSGYQGETDLNDAITEAGKTYEEIASLVAEQPKKDLHFLMECNHEYKGFLGCFPDIIGTHKGAIEKVKESDKLVATSKITLQDKQNMVKRVSIMSYALQAEMNHFHSNRIYDYNSVIRLYLEQQVQFYETIAEKLRQALSRFPVM [SNX9]”: the “solubility in G1/S (log2)” value with HeLa Kyoto [1] is -0.0383. Moreover, the values for the melting temperature with HeLa Kyoto [2] (cell cycle stage: G1/S) and in the data set on HeLa Kyoto [2] (cell cycle stage: mitosis) were 49.9 °C and 49.3 °C, respectively. The thermal stability score in the data set with HeLa Kyoto [3] (setting [5]) is -0.198; in the data set on HeLa Kyoto [3] (cell cycle stage: mitosis), 0.732. Also, in the data set on HeLa Kyoto [4], the “solubility change mitosis (log2)” value is -0.0298.

With “MIGCGACEPKVKMAGGQAAAALPTWKMAARRSLSARGRGILQAAAGRLLPLLLLSCCCGAGGCAAVGENEETVIIGLRLEDTNDVSFMEGGALRVSERTRVKLRVYGQNINNETWSRIAFTEHERRRHSPGERGLGGPAPPEPDSGPQRCGIRTSDIIILPHIILNRRTSGIIEIEIKPLRKMEKSKSYYLCTSLSTPALGAGGSGSTGGAVGGKGGSGVAGLPPPPWAETTWIYHDGEDTKMIVGEEKKFLLPFWLQVIFISLLLCLSGMFSGLNLGLMALDPMELRIVQNCGTEKEKNYAKRIEPVRRQGNYLLCSLLLGNVLVNTTLTILLDDIAGSGLVAVVVSTIGIVIFGEIVPQAICSRHGLAVGANTIFLTKFFMMMTFPASYPVSKLLDCVLGQEIGTVYNREKLLEMLRVTDPYNDLVKEELNIIQGALELRTKTVEDVMTPLRDCFMITGEAILDFNTMSEIMESGYTRIPVFEGERSNIVDLLFVKDLAFVDPDDCTPLKTITKFYNHPLHFVFNDTKLDAMLEEFKKGKSHLAIVQRVNNEGEGDPFYEVLGIVTLEDVIEEIIKSEILDETDLYTDNRTKKKVAHRERKQDFSAFKQTDSEMKVKISPQLLLAMHRFLATEVEAFSPSQMSEKILLRLLKHPNVIQELKYDEKNKKAPEYYLYQRNKPVDYFVLILQGKVEVEAGKEGMKFEASAFSYYGVMALTASPVPLSLSRTFVVSRTELLAAGSPGENKSPPRPCGLNHSDSLSRSDRIDAVTPTLGSSNNQLNSSLLQVYIPDYSVRALSDLQFVKISRQQYQNALMASRMDKTPQSSDSENTKIELTLTELHDGLPDETANLLNEQNCVTHSKANHSLHNEGAI [CNNM2]”, the “solubility in G1/S (log2)” value in the data set with HeLa Kyoto [1] was -0.386. The same sequence showed a melting temperature in the data set with HeLa Kyoto [2] (cell cycle stage: mitosis) of 51.1 °C. Moreover, the thermal stability score in the data set with HeLa Kyoto [3] (setting [5]) is -1.21; in the data set with HeLa Kyoto [3] (cell cycle stage: mitosis), -1.62. Further, in the data set on HeLa Kyoto [4], the “solubility change mitosis (log2)” value was determined as 0.346.

Turning to “MAKRKEENFSSPKNAKRPRQEELEDFDKDGDEDECKGTTLTAAEVGIIESIHLKNFMCHSMLGPFKFGSNVNFVVGNNGSGKSAVLTALIVGLGGRAVATNRGSSLKGFVKDGQNSADISITLRNRGDDAFKASVYGNSILIQQHISIDGSRSYKLKSATGSVVSTRKEELIAILDHFNIQVDNPVSVLTQEMSKQFLQSKNEGDKYKFFMKATQLEQMKEDYSYIMETKERTKEQIHQGEERLTELKRQCVEKEERFQSIAGLSTMKTNLESLKHEMAWAVVNEIEKQLNAIRDNIKIGEDRAARLDRKMEEQQVRLNEAEQKYKDIQDKLEKISEETNARAPECMALKADVVAKKRAYNEAEVLYNRSLNEYKALKKDDEQLCKRIEELKKSTDQSLEPERLERQKKISWLKERVKAFQNQENSVNQEIEQFQQAIEKDKEEHGKIKREELDVKHALSYNQRQLKELKDSKTDRLKRFGPNVPALLEAIDDAYRQGHFTYKPVGPLGACIHLRDPELALAIESCLKGLLQAYCCHNHADERVLQALMKRFYLPGTSRPPIIVSEFRNEIYDVRHRAAYHPDFPTVLTALEIDNAVVANSLIDMRGIETVLLIKNNSVARAVMQSQKPPKNCREAFTADGDQVFAGRYYSSENTRPKFLSRDVDSEISDLENEVENKTAQILNLQQHLSALEKDIKHNEELLKRCQLHYKELKMKIRKNISEIRELENIEEHQSVDIATLEDEAQENKSKMKMVEEHMEQQKENMEHLKSLKIEAENKYDAIKFKINQLSELADPLKDELNLADSEVDNQKRGKRHYEEKQKEHLDTLNKKKRELDMKEKELEEKMSQARQICPERIEVEKSASILDKEINRLRQKIQAEHASHGDREEIMRQYQEARETYLDLDSKVRTLKKFIKLLGEIMEHRFKTYQQFRRCLTLRCKLYFDNLLSQRAYCGKMNFDHKNETLSISVQPGEGNKAAFNDMRALSGGERSFSTVCFILSLWSIAESPFRCLDEFDVYMDMVNRRIAMDLILKMADSQRFRQFILLTPQSMSSLPSSKLIRILRMSDPERGQTTLPFRPVTQEEDDDQR [SMC6]”, the “solubility in G1/S (log2)” value in the data set with HeLa Kyoto [1] was -0.133. In addition, the melting temperature in the data set with HeLa Kyoto [2] (cell cycle stage: G1/S) worked out at 50.6 °C; with HeLa Kyoto [2] (cell cycle stage: mitosis), 50.4 °C. For the same sequence, the thermal stability score in the data set on HeLa Kyoto [3] (setting [5]) was 0.465; with HeLa Kyoto [3] (cell cycle stage: mitosis), -0.0501. Moreover, the “solubility change mitosis (log2)” value in the data set on HeLa Kyoto [4] was determined as 0.0261.

“MAEPLQPDPGAAEDAAAQAVETPGWKAPEDAGPQPGSYEIRHYGPAKWVSTSVESMDWDSAIQTGFTKLNSYIQGKNEKEMKIKMTAPVTSYVEPGSGPFSESTITISLYIPSEQQFDPPRPLESDVFIEDRAEMTVFVRSFDGFSSAQKNQEQLLTLASILREDGKVFDEKVYYTAGYNSPVKLLNRNNEVWLIQKNEPTKENE [HEBP2]”: the “solubility in G1/S (log2)” value with HeLa Kyoto [1] worked out at 0.297. Further, the melting temperature was 53.1 °C with HeLa Kyoto [2] (cell cycle stage: G1/S) and 53.6 °C in the data set with HeLa Kyoto [2] (cell cycle stage: mitosis). In addition, the thermal stability score in the data set on HeLa Kyoto [3] (setting [5]) was 0.153; in the data set on HeLa Kyoto [3] (cell cycle stage: mitosis), -0.49. Besides, in the data set with HeLa Kyoto [4], the “solubility change mitosis (log2)” value is -0.0442.

Values taken from the supplement of paper PMC5998384.
